In patent US20250051465A1 (published 2025):

T1: full length human LEPR on cells (human, UniProt P48357 22-1165)
T1 construct: also called HEK293/Stat3-luc/hLEPR-FL; hLEPR-FL
T1 sequence: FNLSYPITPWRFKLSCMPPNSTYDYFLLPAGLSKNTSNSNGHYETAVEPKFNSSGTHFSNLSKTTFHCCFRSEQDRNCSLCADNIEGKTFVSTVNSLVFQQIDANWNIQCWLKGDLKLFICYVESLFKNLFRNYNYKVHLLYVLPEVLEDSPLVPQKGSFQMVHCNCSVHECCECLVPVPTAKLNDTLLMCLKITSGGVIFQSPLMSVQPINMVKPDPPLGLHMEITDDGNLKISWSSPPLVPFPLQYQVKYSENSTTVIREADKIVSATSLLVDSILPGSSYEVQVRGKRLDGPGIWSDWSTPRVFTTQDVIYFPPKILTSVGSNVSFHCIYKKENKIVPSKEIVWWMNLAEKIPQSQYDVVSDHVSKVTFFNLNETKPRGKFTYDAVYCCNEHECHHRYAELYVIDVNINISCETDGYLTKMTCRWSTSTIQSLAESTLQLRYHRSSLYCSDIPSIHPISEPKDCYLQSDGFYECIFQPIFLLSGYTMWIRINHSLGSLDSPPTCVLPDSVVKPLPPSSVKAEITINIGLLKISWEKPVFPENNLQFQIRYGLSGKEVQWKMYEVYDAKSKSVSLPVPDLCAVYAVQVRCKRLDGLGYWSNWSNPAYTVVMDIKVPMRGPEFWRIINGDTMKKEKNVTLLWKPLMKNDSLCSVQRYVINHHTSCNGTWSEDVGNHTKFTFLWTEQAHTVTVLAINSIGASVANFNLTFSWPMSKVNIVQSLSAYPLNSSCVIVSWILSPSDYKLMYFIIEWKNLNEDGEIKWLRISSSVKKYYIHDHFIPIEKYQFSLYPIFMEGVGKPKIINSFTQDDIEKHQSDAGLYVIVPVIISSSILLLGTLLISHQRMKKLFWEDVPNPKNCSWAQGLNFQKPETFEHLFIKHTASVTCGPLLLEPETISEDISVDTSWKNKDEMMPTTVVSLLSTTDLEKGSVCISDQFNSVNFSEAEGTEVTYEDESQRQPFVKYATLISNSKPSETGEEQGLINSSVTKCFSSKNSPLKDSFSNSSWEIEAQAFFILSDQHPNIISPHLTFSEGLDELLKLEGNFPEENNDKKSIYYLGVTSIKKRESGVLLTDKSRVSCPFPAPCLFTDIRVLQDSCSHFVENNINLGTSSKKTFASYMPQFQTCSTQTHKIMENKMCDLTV


Experiments:
[1] = target: extracellular domain of Macaca fascicularis LEPR fused with the transmembrane and cytosolic domains of human … (Macaca fascicularis; human, UniProt P48357 840-1165); assay: cell-based or functional assay
[2] = target: T1, full length human LEPR on cells; assay: FACS, HEK293/Stat3-luc/hLEPR-FL, 70 nM Ab
[3] = target: T2, extracellular domain portion of LEPR protein expressed with a C-terminal human Fc tag (hLEPR.hFc) (human); assay: blocking ELISA: 10 nM hLEPR.hFc to coated hLeptin, 500 nM Ab
T2 construct: also called dimeric human LEPR
Procedure: These antibody-protein or protein-protein complexes were then incubated for 1.5 hour at room temperature (RT). […] Samples were developed with a TMB solution (BD Biosciences, #555214; substrate A and B mixed at 1:1 ratio as per manufacturer's instructions) to produce a colorimetric reaction and then neutralized with 1M sulfuric acid before measuring absorbance at 450 nm on a Victor X5 plate reader.
Data analysis was performed using a sigmoidal dose-response model within Prism™ software (GraphPad). […] In the calculation, binding signal of 10 nM of hLEPR.hFc without the presence of the antibody was referenced as 100% binding or 0% blocking; and the baseline signal of buffer alone without the presence of hLEPR.hFc was referenced as 0% binding or 100% blocking.

[4] = target: T3, preformed complex of hLEPR-MMH and human Leptin (human, UniProt P41159 22-167); assay: SPR, mAb over preformed hLEPR-MMH:Leptin complex, 25C
T3 construct: also called hLEPR-MMH: human Leptin complex; Leptn;LEPR
T3 sequence (P41159 22-167 limits assumed, one chain of several): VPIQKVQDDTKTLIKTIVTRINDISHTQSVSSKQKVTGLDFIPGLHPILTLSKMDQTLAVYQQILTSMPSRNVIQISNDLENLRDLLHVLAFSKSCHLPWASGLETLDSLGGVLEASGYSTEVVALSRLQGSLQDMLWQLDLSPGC
Procedure: The entire study was performed in 10 mM HEPES pH 7.4, 150 mM NaCl, 3 mM EDTA, and 0.05% v/v Surfactant Tween-20 (HBS-ET running buffer) at 25° C.

Row | Binder | % Activation [1] [%] | EC50, STAT3-Luc reporter, IMR-32/STAT3-Luc/MfLEPR cells [1] [pM] | Binding Ratio [2] [fold over unstained] | % blockade [3] [%] | 200 nM mAb Bound (RU) [4] [RU]
1 | H4H16650P2 (antibody, human IgG4, V domains shown, Fully human antibody with human IgG4 Fc (H4H prefix)) VH: QVQLVESGGGVVQPGKSLRLSCVASGFTFSSDAMYWVRQAPGKGLEWVAVIYYDGNYQYYEDSVKGRFTISRDNSQNTLDLQMNSLRVDDTAVYFCARLNWDYWYLDLWGRGTLVTVSS VL: not shown | 82 | 266 | 42 | -7 | 81
2 | H4H16679P2 (antibody, human IgG4, V domains shown, Fully human antibody with human IgG4 Fc (H4H prefix)) VH: QVQLVESGGGVVQPGRSLRLSCTASGFTFSSYAMYWVRQAPGKGLEWVSVIYYDGSYKYYADSVKGRFTISRDNSKNTLYLQMDSLRAEDTAVYYCASYNWNYWYFDFWGRGTLVTVSS VL: not shown | 80 | 249 | 51 | 7 | 90
3 | H4H17321P2 (antibody, human IgG4, V domains shown, Fully human antibody with human IgG4 Fc (H4H prefix)) VH: QVQLVESGGGVVQPGRSLRLSCEASGFSSSDNAMYWVRQAPGKGLEWVSVIYHDGSYKYYEDSVKGRFTIARDNSKNTLYLQMNSLRAEDTAVYYCARYNWNHWYFDVWGRGTLVTVSS VL: not shown | 78 | 368 | 46 | 6 | 
4 | H4H17319P2 (antibody, human IgG4, V domains shown, Fully human antibody with human IgG4 Fc (H4H prefix)) VH: QVQLVESGGSVVQPGRSLRLSCAASGFTFSTYAMYWVRQTPGKGLEWVAVLYSDGSNKYYIDSVKGRFTISRDTSTNTLYLQMSSLRADDSALYYCARLNWDYWYFDLWGRGTLVTVSS VL: not shown | 76 | 365 | 47 | 9 | 92

The remaining lines, values ahead:

Row | % Activation [1] [%] | EC50, STAT3-Luc reporter, IMR-32/STAT3-Luc/MfLEPR cells [1] [pM] | Binding Ratio [2] [fold over unstained] | % blockade [3] [%] | 200 nM mAb Bound (RU) [4] [RU] | Binder
5 |  |  |  | 16 |  | H4H18417P2 (antibody, human IgG4, V domains shown, Fully human antibody with human IgG4 Fc (H4H prefix)) VH: QVQLVESGGGVVQPGRSLRLSCAASGFTFSTYGMHWVRQAPGKGLEWVSVISYDESNKYYADSVKGRFTISRDNSKNALYLQMNSLRNEDTAVYYCARDRPFGLVTGWFDPWGQGTLVTVSS VL: not shown
6 |  |  |  | 8 |  | H4H18449P2 (antibody, human IgG4, V domains shown, Fully human antibody with human IgG4 Fc (H4H prefix)) VH: EVQLVESGGGLVQPGGSLRLSCVASGFTFNKYDMHWVRQTTGKGLEWVSGIDTDGDTYYPGSVKGRFTISRENAENSLYLQMNGLRVGDTAVYYCARWPWSGFYGAFDIWGQGTMVTVSS VL: not shown
7 |  |  |  | -5 |  | H4H18446P2 (antibody, human IgG4, V domains shown, Fully human antibody with human IgG4 Fc (H4H prefix)) VH: EVQLVESGGGLVQPGGSLRLSCAASGFTFSNYGMTWVRQAPGKGLEWVSAITGGGGSTYYSNSVKGRFTISRDNSKNTVYLRMNSVRAEDTAVYYCAKYKWNFVDDWGQGTTVTVSS VL: not shown
8 |  |  |  | 28 |  | H4H18445P2 (antibody, human IgG4, V domains shown, Fully human antibody with human IgG4 Fc (H4H prefix)) VH: QVQLQESGPGLVKPSQTLSLTCTVSGGSISSGGDYWSWIRQLPGKGLEWIGYIYYSGSAYYNPSLKSRGTISIDTSKNQFSLKLTSVTAADTAVYFCVKLRFLEWFLGGWFGPWGQGTLVTVSS VL: not shown
9 |  |  |  | 15 |  | H4H18438P2 (antibody, human IgG4, V domains shown, Fully human antibody with human IgG4 Fc (H4H prefix)) VH: QVQLVESGGGVVQPGRSLRLSCAASGFSFNTYGMHWVRQAPGKGLEWVTIIWYDGSIKYYADSVKGRFTISRDNSKNTLYLQMNSLRAEDTAVYYCARGGYSGYLYFDYWGQGTLVTVSS VL: not shown
